Measurements taken from a protein production outcome set (Wang et al. 2014).

Assay: label from the status in PepcDB records

| Sequence | protein production |
| --- | --- |
| MIRKYRYGAPFDTEALTEKIETAEEAFPYGEISQKEGFAFTYIMDEDDIVYGLGESNRGINKRGYCYISNCTDDPIHTEDKRSLYGAHNFIIVSGKTTFGLFFDYPSKLTFDIGYTRMDTLKVSCENADLDIYVIEGENAYDIVKQFRRVIGRSYIPPKFAFGFGQSRWGYTTKEDFRAVAKGYRENHIPIDMIYMDIDYMQDFKDFTVNEKNFPDFPEFVKEMKDQELRLIPIIDAGVKVEKGYEVYEEGVKNNYFCKREDGSDFVAAVWPGDTHFPDMLNPEARKWFGDKYRFLIDQGIEGFWNDMNEPAIFYSSEGLAEAKEFAGEFAKDTEGKIHPWAMQAKMKDIVNSPEDYKRFYHNVNGKKIRHDKVHNLFGYNMTRAAGEAFERIDPEKRFLMFSRSSYIGMHRYGGIWMGDNKSWWSHILLNLKMLPSLNMCGFMYTGADLGGFGDDTTRDLLLRFLALGVFTPLMRDHAAEGTREQECYQFENIEDFRSVINARYRLVPYLYSEYMKAALNDDMYFKPLGFVYPDDKMAIRVEDQLMLGNEIMIAPVYEQNARGRYVYLPEEMKFIKFMPDGSISEEVLEKGVHYVDVALNEVPLFIRSGKCIPVAEAAECVKDIDTENMQLIGYEGSSYTLYEDDGIHKDYDKKENYRVLTK | not failed |
| MHTSVQHAKTCLAVTSVSPIYVFGKTTFVSELIEQAGGKNCVETIQSAYPTVDVEYILRANPDVFIFNSTDQQKLFFETYPLLKQCKGYITNQLFVIDDSIMSRPGIRLPILKDSLVSILSKLEHHHHHH | failed |
| MTAFYLLVPFLFIRFIFLSLLDRKATGRAAHFASMQGKEIIAYYLYQLSTLMLLIVPFFLKVSLHFSSFFYLGLGAYLLGSVLLFLVIKDFANPDEKGLNTKGLYALSRHPMYIAYFVLFLGVAMLTQSLTLLIFLAIFQLSAHFIILAEERECLIKFGAAYQEYQKRVRMYL | failed |
| MNFPLVLLILLVVTGGIWLLDYFVLRHKRVSGNTEEPWWVEYPKSFFPIILIVFSLRSFLVEPFKIPSGSMIPTLLIGDFILVNKYTYGIRLPVANLKIIDMNEPQRGEVMVFRFPEDPSIDYIKRVIGVPGDMVTYRNKQLSINDVPVQLEQGGDYKYIDGPAYIYTQRFKENMDGSEHDILINEDMPDIQLSAIHHFPNRENCTFDRTGFSCKVPEGNYFTLGDNRDGSSDSRYWGFVPENHIVGKAFLIWWNFNDLSRIGTLIK | failed |
| MGVHIDSVVFSRAGALLTLKDEAEISEIRVYSESEEIASQEIGKNKDNVFVSFNWDPEARYRFEVITGSGASGTIEAYAPSKPALKKEYTIELEDVTPGDIEKTSTNVEGALKFSPDSEYLAIGTNGGSLKLIKVATGEKVWEKQLVKGIADARIADIEFSEDGKRLFVGEESPDAFLYCFDLEGTEIWKYGAGKELGSDLKYMPAMKKIKLDSEGNIYVAASRACGYIGEKYKYLARIYSFDPEGNLRWKFPESEYMDSGVTWIDATPDGKYAVFGTTCFTETEKWREGTVHALNGNTGQEHWSYKIQPVEPFFDYSAIWYSTQITPDGEKLITMTSDGRAFLFNNSRIIETGTPEITWQQNISTPIVVSGVPIYGSANYAYIVNDTLIFSIGSTFSKDKNKDAPFEHPSGNSLFAYDYDGNLLWKWRVDGYAGECAVNDRYLVIPLAQNLVTEDRSVHGVYVFDASKSGGASSRLIQTYNTEGITVSADISPDGRYIAALEAPSRLDDGTVLGEYKVHILTLEHHHHHH | not failed |
| MVKQCSPAHNIFERVSKCYVEKQQPHDVSIPNIRLTVSATGLAFGSVHQANANQNQIACFYFSCNFSSKSNHHQSQAIVREEIQKNLRPVRIVGHQSMASSWRRSIGNVRSFIGNSMGGLRGGQSAASWVVAGTIAYFLWIKPEQDLKKEQEARAALAMADTNQYVEKRKPIADPQVTGLIYGNKNGTDKSED | failed |
| MKLEERIKSKITILVFIAILMYFLLNYGNDVRGIINNIYSIFFPFILGGCIAFILNIPVTFFSKKLLNCKIKFIGKVVRKYNISISIVASCILIIGIFALISAIIIPNIIQTIKILPNAFDNSITAFQKFVNENSWMSKNVTSLVNNLNIDWNGILNKVKITIITGASSVFMSTLGAATTFASTAIEFVLSFIFSIYILAQKNKLGTQVKMVLYAFFKKQKVDSALEVLKLTSNTFSNFITGQCTVSIILGVMFFIVMTILKLPYAIEVSIIIAFFSVIPMIGSIIGFVLSVLLLLIFNPIKAGVFVFVFLAIKQVEDNFIYPKIVGNSVGLPSILVLVAITLGGKVLGVPGMIMSIPLFSVAYVLLRKEVYTRLEKKALKVE | failed |
| MKRYIYLFVSVFTLVMASCQQEETSNGKTGFLQFSVEKNTSTILVPATRAEELPIALQVVDRAGTVVKETDDWHNWTSTPLELPLGSYTINAFSKGVDVGTAGFDEPYYWGQSEVTVVPKVNQSVNIECRLANVKVTVNYSADVKKYFSKLNCSVGNSSGKLVFGKDETRSGYFAVDKLNISLALTNTDGRSFVFESEPITDVKERQHYRINYTMKANGAIGGVSVTLDPSTKEYNVNIAIPKESNPSVNVWSDFADVTLPLPDGVVTKECKYRISGTEDWNTVSNVEQADGKLVATITGLIPGTEYDFCFAINGVNGKITTATTELQKQLENGSFDEWNQNGKTWFPGTAAEASAKNSYWDTGNVGAATMSKNPSIGESNDVHTVGGKSAKLSSQFVGMFGIGKFAAGNIYIGRYMETYTSPMGARIRFGREFTSRPTQLKGWYKYTRGTSIDRGDHNVEELKNSGGDKCAIYIALTDNEGLVDDNGVKTAYEVNNNKEGSPTRYTVDLSEANKDVIAYGSITDEESKGSFDESGNVVWKQFTIDLKYRDLTRKPKYIIVVASASKYGDFFTGSESSVMLIDDFELVYGTPVTAN | failed |
| MSQRKYFGTDGVRGEVGGPVINAAFALRLGYAAGRVLAREHREHASGRGRNRPQVVIGKDTRISGYMLESALEAGLSAAGIDVLLAGPVPTPAVAYLTRTLRLAAGIVISASHNPYQDNGIKFFSAHGMKLPDDIEAAIEQALDEPLGCVGSEELGRARRMADAQGRYIEFCKSTFPHDLDLNGLKLVVDAAHGAAYNVAPHVFRELGAEVHAIGVSPDGFNINKGVGALHPESLAEEVRARGADLGIALDGDADRLQMVDGTGRIYNGDELLYAIVRERMQRGPVAGVVGTLMTNYGLERQLQQIGVGFERANVGDRYVLEQMQARGWLYGGESSGHLLCLDCHTTGDGTIAALQVLTALRRADATLAEWVADLRMYPQKMINVPLAPGLDWKTHDGLARARGAVEAELAGRGRVLIRASGTEPKLRLMVEAEDEALAQASAQKLADSLGA | failed |
| MSLPISLTDFFPIQGGMATRMVIEGANFGTDLSQIKVFFNQKEASILNVKNSIIYLLVPKLPGNDCIVTVKVGNQEARFTRNFQYIENYSVTTIAGQPGTNLFVEGTLAAAQFGPVQHLAIDDENNLFITERNGSDGKGTCSVLNEESGTVTFLFKASDNLNVPTVNAQTQNVYIPLDGGYTFYELNPVNQWIAKSRLVLHPSKEQQEAGMDDFEINWKHSLAFSRYDNMIYTRSYGGDLIKVDPETRVGQKIGNFFPNTDSFIVAHPTQPEILYIAYAAKHVIYTYNIETGEHKLFAGAFGQSGWNDGIATDAEFNSPRQMSLDMEGNIYIADSGNHCIRMIDKNGIVTTPIGQPGEAGYADGSPDMALLNDPRGVAVNSEGDVYIADLGNRCIRKLTLQLEHHHHHH | not failed |
| MEIEQQQPLPSERGLSPVARRALIGAITGCFVLGGVLMLLPPAGREPAAPPAPAAGPMAGPVAQAKAAVGAGVPVALPALAALVTDHETHLRAHPRDARSWAVLGAAYVAQGKGTADAAYFPKAEEALRTSLNVAPRRNAEALGALAALANARGDYREAKQWGEAAVKMAPKQWPAYAQLIDAYDGLGDYKATGKTLDKLLGLRAGPAAAARAAQVYRARGWREDAAAAIADATARAGSPAEQAVYWQQAGELAWERGEPEQALRYFETALRTDPDRHAALAGQGRALAALGRTSDAVNAYRAALAKQPLAAYAVELGELYESQGLGGAAQVQYYLVRERVRQDAAGGVNNRLVVGQFEADHGDAEVAVRELREEWKRQPSIRVADALGWALHRAGQDQEALGFATKAMDKEHGGGVRSALYAYHRGEIERALDQLAPARRHLAEALRINPHFSPWFAPMAKETLAELGEPPAEGLPGDEEVEAAEAEAAEAAEAAQTPEAAESVDPAQTEQVPPPGASTPVPQEPEAR | failed |
| FDKLGNSAAIQEMNREVEAAAKRTSPVFLTGEAGSPFETVARYFHKNGTPWVSPARVEYLIDMPMELLQKAEGGVLYVGDIAQYSRNIQTGITFIIGKAERCRVRVIASCSYAAGSDGISCEEKLAGLFSESVVRIPPLS | not failed |
| VWEFYMPTDVFFGEKILEKRGNIIDLLGKRALVVTGKSSSKKNGSLDDLKKLLDETEISYEIFDEVEENPSFDNVMKAVERYRNDSFDFVVGLGGGSPMDFAKAVAVLLKEKDLSVEDLYDREKVKHWLPVVEIPTTAGTGSEVTPYSILTDPEGNKRGCTLMFPVYAFLDPRYTYSMSDELTLSTGVDALSHAVEGYLSRKSTPPSDALAIEAMKIIHRNLPKAIEGNREARKKMFVASCLAGMVIAQTGTTLAHALGYPLTTEKGIKHGKATGMVLPFVMEVMKEEIPEKVDTVNHIFGGSLLKFLKELGLYEKVAVSSEELEKWVEKGSRAKHLKNTPGTFTPEKIRNIYREALGV | not failed |
| MRTLNTSAMDGTGLVVERDFSVRILTACFLSLLILSTLLGNTLVCAAVIRFRHLRSKVTNFFVISLAVSDLLVAVLVMPWKAVAEIAGFWPFGSFCNIWVAFDIMCSTASILNLCVISVDRYWAISSPFRYERKMTPKAAFILISVAWTLSVLISFIPVQLSWHKAKPTSPSDGNATSLAETIDNCDSSLSRTYAISSSVISFYIPVAIMIVTYTRIYRIAQKQIRRIAALERAAVHAKNCQTTTGNGKPVECSQPESSFKMSFKRETKVLKTLSVIMGVFVCCWLPFFILNCILPFCGSGETQPFCIDSNTFDVFVWFGWANSSLNPIIYAFNADFRKAFSTLLGCYRLCPATNNAIETVSINNNGAAMFSSHHEPRGSISKECNLVYLIPHAVGSSEDLKKEEAAGIARPLEKLSPALSVILDYDTDVSLEKIQPITQNGQHPT | failed |
| MSVVSPDPAPVPHDPQRRALLRWLVGGGALAGGLGVSAVAQGYRFGVTHEQWNLVGLTRPVRLALLTDLHYGLYIGAGSVRRWVDATLAECPDLILLGGDLVDSHFDAAARPQQTAALLAELGRLRAPLGVYAVWGNHDYGSFGRSISQSPEASRADWAARRDALRAGLAGQGVTVLLNEGRSLRDDLWLGGVDDLRMGEADSVAALRGSGTRATVLLAHNPDVLLRLRSAPGLVLSGHTHGGQVRLPLLGALKVPADPRFTMGWVRGPQGIPAYVSRGLGMSGLPVRNLCEPEITLLTLLPPGALEHHHHHH | failed |
| MRAILILLDGLGDRASEILNNKTPLQFAKTPNLDRLAENGMCGLMTTYKEGIPLGTEVAHFLLWGYSLEEFPGRGVIEALGEDIEIEKNAIYLRASLGFVKKDEKGFLVIDRRTKDISREEIEKLVDSLPTCVDGYKFELFYSFDVHFILKIKERNGWISDKISDSDPFYKNRYVMKVKAIRELCKSEVEYSKAKDTARALNKYLLNVYKILQNHKINRKRRKLEKMPANFLLTKWASRYKRVESFKEKWGMNAVILAESSLFKGLAKFLGMDFIKIESFEEGIDLIPELDYDFIHLHTKETDEAAHTKNPLNKVKVIEKIDKLIGNLKLREDDLLIITADHSTPSVGNLIHSGESVPILFYGKNVRVDNVKEFNEISCSNGHLRIRGEELMHLILNYTDRALLYGLRSGDRLRYYIPKDDEIDLLEG | failed |
| MPLTNHTPEDRVQDIFDHIAPQYDQMNSVISLGTHHWWRQRVMQAMTLHAGDFALDVCCGTGDWTIALAQAVGPAGHVVGFDFSGVMLQHATTKVRQAQLDDRITLRQGDAMQLPYPDNYFNVVTIGFGLRNVPDATQVLREMARVVKPGGQVVCLETSQPTNPLVHAGWQVYFGHVVPLMGRLAHHYQAYNYLQSSTHHFVSAKELSRLFTAAGLTQVHYDLFNLGAAAVHWGRKPYLEHHHHHH | not failed |
| MKSTEKKELSHFRLKLETYLNEHFPEMSGNNPFITARSDEALTAYCDAVAQGFSHPEAESMASEVLYQGLHFSRYDTLVSVLEREFEQELPSPLPERLAPILLKNKAIQSVFAKYDLTDDFEASPEYEHLYTELTGTIVLLIESNHLPTIGGGNDTV | not failed |
